pKd: −log10 of the molar value. “And” between values parts separate entries of the source, which are not always exact repeats. Equal values may be shown once. Read-outs that look alike come from different tables or passages of the source.
Legend:
[1] = biological target: G-actin, rabbit skeletal muscle (rabbit) (UniProt P68135); assay: other fluorescence titration
[2] = biological target: G-actin, rabbit skeletal muscle (rabbit) (UniProt P68135); assay: association kinetics by inactivation of etheno-ATP exchange
[3] = biological target: G-actin, rabbit skeletal muscle (rabbit) (UniProt P68135); assay: dissociation kinetics by etheno-ATP fluorescence decay
[4] = biological target: G-actin, rabbit skeletal muscle (rabbit) (UniProt P68135)

Chain of 14NT, 14-kD fragment of human plasma gelsolin containing the NH2 terminal (domain or fragment) (P06396 28-782): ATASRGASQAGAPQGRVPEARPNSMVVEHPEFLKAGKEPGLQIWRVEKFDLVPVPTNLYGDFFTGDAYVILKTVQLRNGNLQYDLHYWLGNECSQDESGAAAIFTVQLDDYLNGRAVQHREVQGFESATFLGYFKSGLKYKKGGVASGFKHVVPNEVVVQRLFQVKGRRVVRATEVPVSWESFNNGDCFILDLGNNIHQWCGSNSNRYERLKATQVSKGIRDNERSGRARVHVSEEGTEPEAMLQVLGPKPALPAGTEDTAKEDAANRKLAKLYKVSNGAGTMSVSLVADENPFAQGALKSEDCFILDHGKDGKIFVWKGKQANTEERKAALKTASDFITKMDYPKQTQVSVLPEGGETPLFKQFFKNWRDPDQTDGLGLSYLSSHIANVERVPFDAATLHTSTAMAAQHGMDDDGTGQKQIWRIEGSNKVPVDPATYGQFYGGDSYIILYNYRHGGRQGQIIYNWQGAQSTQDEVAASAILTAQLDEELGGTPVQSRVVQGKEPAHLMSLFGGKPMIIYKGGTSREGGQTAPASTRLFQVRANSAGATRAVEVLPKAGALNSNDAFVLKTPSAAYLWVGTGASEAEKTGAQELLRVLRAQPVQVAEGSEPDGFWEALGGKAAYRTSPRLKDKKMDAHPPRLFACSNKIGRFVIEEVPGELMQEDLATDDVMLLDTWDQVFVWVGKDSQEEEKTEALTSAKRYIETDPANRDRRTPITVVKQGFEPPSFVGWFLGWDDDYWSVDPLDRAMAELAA
Chain of 41CT, 41-kD COOH-terminal half of human plasma gelsolin (domain or fragment) (P06396 28-782): as above

Which results are given for “14NT, 14-kD fragment of human plasma gelsolin containing the NH2 terminal (domain or fragment)”?
half-maximal saturation [1]: 1 nM and 2 nM; koff [1]: 0.0003 s⁻¹; stoichiometry N [1]: 1; kon [2]: 299000 M⁻¹ s⁻¹; koff [3]: 1.35e-06 s⁻¹; t1/2 of the complex [3]: 143 h; Ka [4]: 2.2e+11 M⁻¹; pKd [4]: 11.30 to 11.40

How did the pKd [1] turn out when “41CT, 41-kD COOH-terminal half of human plasma gelsolin (domain or fragment)” was run?
Its pKd is 7.60.

What about the stoichiometry N [1] of the same substance?
The stoichiometry N was 1.
